The text below walks through data of publication PMC10130748.

In test [1] the target is soluble recombinant integrin αIIbβ3, P08514;P05106. The test is described as follows: ELISA-type binding assay (OD450). Particulars: chain shown with the change; CD62P 50 µg/ml; 1 mM Mn2+; parent: est. 0.54; read off a plot. In general terms: An ELISA detects its analyte on a solid surface through an enzyme-linked reagent.
Test [2] concerns the target T1, soluble recombinant integrin αvβ3, P06756;P05106.
T1 chain 1: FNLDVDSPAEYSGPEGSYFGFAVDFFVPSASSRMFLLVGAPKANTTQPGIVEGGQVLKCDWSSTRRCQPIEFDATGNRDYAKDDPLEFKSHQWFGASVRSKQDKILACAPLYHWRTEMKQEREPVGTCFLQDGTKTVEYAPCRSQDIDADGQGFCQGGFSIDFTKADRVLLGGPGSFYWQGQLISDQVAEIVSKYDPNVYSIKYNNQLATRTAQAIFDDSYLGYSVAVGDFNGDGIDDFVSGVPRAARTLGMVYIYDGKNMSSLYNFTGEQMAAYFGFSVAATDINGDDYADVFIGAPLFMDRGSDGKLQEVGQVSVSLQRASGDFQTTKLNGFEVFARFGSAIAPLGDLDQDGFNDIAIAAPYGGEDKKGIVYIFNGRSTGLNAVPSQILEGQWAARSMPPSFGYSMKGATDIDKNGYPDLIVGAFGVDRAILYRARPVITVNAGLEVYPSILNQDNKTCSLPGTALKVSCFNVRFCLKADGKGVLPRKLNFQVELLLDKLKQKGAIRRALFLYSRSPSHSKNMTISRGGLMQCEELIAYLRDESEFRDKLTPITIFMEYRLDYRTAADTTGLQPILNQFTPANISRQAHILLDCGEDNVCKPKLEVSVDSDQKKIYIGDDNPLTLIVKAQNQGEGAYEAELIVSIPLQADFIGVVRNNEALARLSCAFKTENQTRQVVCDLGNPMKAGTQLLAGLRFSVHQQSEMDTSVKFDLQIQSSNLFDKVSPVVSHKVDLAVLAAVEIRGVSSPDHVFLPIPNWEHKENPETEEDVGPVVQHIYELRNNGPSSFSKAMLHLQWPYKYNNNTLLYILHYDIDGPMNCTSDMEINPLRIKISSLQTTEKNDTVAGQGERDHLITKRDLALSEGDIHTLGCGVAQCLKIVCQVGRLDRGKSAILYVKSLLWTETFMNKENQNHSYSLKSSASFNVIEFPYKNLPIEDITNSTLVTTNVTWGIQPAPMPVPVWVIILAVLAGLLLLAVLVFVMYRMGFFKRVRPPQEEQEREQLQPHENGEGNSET
T1 chain 2: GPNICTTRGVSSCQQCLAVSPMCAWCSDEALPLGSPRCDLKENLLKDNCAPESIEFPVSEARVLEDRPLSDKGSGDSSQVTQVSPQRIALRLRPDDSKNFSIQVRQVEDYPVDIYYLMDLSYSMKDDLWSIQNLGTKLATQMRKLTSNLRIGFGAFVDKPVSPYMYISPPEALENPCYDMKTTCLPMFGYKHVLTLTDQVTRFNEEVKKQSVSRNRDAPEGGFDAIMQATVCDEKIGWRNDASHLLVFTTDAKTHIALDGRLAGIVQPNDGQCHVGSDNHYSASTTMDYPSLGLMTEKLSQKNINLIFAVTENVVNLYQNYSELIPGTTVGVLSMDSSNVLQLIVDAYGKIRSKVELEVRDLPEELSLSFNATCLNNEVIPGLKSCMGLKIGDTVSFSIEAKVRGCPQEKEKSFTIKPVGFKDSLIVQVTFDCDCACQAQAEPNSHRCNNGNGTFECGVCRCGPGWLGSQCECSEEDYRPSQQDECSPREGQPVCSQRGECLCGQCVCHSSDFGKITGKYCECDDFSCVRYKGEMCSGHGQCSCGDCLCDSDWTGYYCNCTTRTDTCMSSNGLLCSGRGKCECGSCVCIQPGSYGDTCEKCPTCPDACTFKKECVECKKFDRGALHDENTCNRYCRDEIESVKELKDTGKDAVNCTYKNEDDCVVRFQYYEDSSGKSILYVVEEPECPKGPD
The test is described as follows: ELISA-type binding assay (OD450). Particulars: chain shown with the change; CD62P 50 µg/ml; 1 mM Mn2+; parent: est. 0.55; read off a plot.

B1: CD62P (P-selectin) lectin domain (residues 1–117), wild type R54E; K55E (protein)
chain: WTYHYSTKAYSWNISRKYCQNRYTDLVAIQNKNEIDYLNKVLPYYSSYYWIGIEENNKTWTWVGTKKALTNEAENWADNEPNNKRNNEDCVEIYIKSPSAPGKWNDEHCLKKKHALC
For the molecule B1, the response in test [1] came out at 1.3 OD450; in test [2], 1.2 OD450.

B2: CD62P (P-selectin) lectin domain (residues 1–117), wild type K58E (protein)
chain: WTYHYSTKAYSWNISRKYCQNRYTDLVAIQNKNEIDYLNKVLPYYSSYYWIGIRKNNETWTWVGTKKALTNEAENWADNEPNNKRNNEDCVEIYIKSPSAPGKWNDEHCLKKKHALC
As for B2, the response in test [1] came out at 0.27 OD450; in test [2], 0.31 OD450.

B3: CD62P (P-selectin) lectin domain (residues 1–117), wild type K84E; R85E (protein)
chain: WTYHYSTKAYSWNISRKYCQNRYTDLVAIQNKNEIDYLNKVLPYYSSYYWIGIRKNNKTWTWVGTKKALTNEAENWADNEPNNEENNEDCVEIYIKSPSAPGKWNDEHCLKKKHALC
As to B3, the response stood at 0.19 OD450 in test [1] and 0.24 OD450 in test [2].

B4: CD62P (P-selectin) lectin domain (residues 1–117), wild type R16E; K17E (protein)
chain: WTYHYSTKAYSWNISEEYCQNRYTDLVAIQNKNEIDYLNKVLPYYSSYYWIGIRKNNKTWTWVGTKKALTNEAENWADNEPNNKRNNEDCVEIYIKSPSAPGKWNDEHCLKKKHALC
As to B4, the results for the response in test [1] and in test [2] were 0.12 OD450 and 0.14 OD450, respectively.

B5: CD62P (P-selectin) lectin domain (residues 1–117), wild type K66E; K67E (protein)
chain: WTYHYSTKAYSWNISRKYCQNRYTDLVAIQNKNEIDYLNKVLPYYSSYYWIGIRKNNKTWTWVGTEEALTNEAENWADNEPNNKRNNEDCVEIYIKSPSAPGKWNDEHCLKKKHALC
Regarding B5, the response is 0.3 OD450 in test [1] and 0.35 OD450 in test [2].

B6: CD62P (P-selectin) lectin domain (residues 1–117), wild type E88D (protein)
chain: WTYHYSTKAYSWNISRKYCQNRYTDLVAIQNKNEIDYLNKVLPYYSSYYWIGIRKNNKTWTWVGTKKALTNEAENWADNEPNNKRNNDDCVEIYIKSPSAPGKWNDEHCLKKKHALC
Turning to B6, the response in test [1] is 0.76 OD450; in test [2], 0.8 OD450.
